Measurements published in PMC9279676, “ERK2 MAP kinase regulates SUFU binding by multisite phosphorylation of GLI1” (Life Science Alliance, 2022).

B1: GLI1_(1-232), wild type, 35S-radiolabeled [modified: [35S]-methionine label; [35S]-methionine label] [human] / GST-SUFU (fusion of GST to full-length human SUFU) [human] (parent)
chain 1: MFNSMTPPPISSYGEPCCLRPLPSQGAPSVGTEGLSGPPFCHQANLMSGPHSYGPARETNSCTEGPLFSSPRSAVKLTKKRALSISPLSDASLDLQTVIRTSPSSLVAFINSRCTSPGGSYGHLSIGTMSPSLGFPAQMNHQKGPSPSFGVQPCGPHDSARGGMIPHPQSRGPFPTCQLKSELDMLVGKCREEPLEGDMSSPNSTGIQDPLLGMLDGREDLEREEKREPESV
chain 2: MAELRPSGAPGPTAPPAPGPTAPPAFASLFPPGLHAIYGECRRLYPDQPNPLQVTAIVKYWLGGPDPLDYVSMYRNVGSPSANIPEHWHYISFGLSDLYGDNRVHEFTGTDGPSGFGFELTFRLKRETGESAPPTWPAELMQGLARYVFQSENTFCSGDHVSWHSPLDNSESRIQHMLLTEDPQMQPVQTPFGVVTFLQIVGVCTEELHSAQQWNGQGILELLRTVPIAGGPWLITDMRRGETIFEIDPHLQERVDKGIETDGSNLSGVSAKCAWDDLSRPPEDDEDSRSICIGTQPRRLSGKDTEQIRETLRRGLEINSKPVLPPINPQRQNGLAHDRAPSRKDSLESDSSTAIIPHELIRTRQLESVHLKFNQESGALIPLCLRGRLLHGRHFTYKSITGDMAITFVSTGVEGAFATEEHPYAAHGPWLQILLTEEFVEKMLEDLEDLTSPEEFKLPKEYSWPEKKLKVSILPDVVFDSPLH

Variants of: B1
Test: GST-SUFU pull-down binding assay with 35S-radiolabeled in vitro-translated GLI1
Conditions: 10 nM GST-SUFU, parent: 55, read off a plot

| response | Variant |
| --- | --- |
| 33 % GLI1 Bound | chain 1 S130E |

Same assay, conditions: 20 nM GST-SUFU, parent: 67, read off a plot

| response | Variant |
| --- | --- |
| 52 % GLI1 Bound | chain 1 S130E |

Same assay, conditions: 40 nM GST-SUFU, parent: 80, read off a plot

| response | Variant |
| --- | --- |
| 61 % GLI1 Bound | chain 1 S130E |

Same assay, conditions: 80 nM GST-SUFU, parent: 95, read off a plot

| response | Variant |
| --- | --- |
| 72 % GLI1 Bound | chain 1 S130E |
